In data set [1] the target is GST-PIF (glutathione-S-transferase fusion of the C-terminal 77 amino acids of PRK2).
Data set [2] deals with GST-PIF mutant Asp978 to Ala.
For data set [3], the target named is GST-PIF mutant Asp978 to Ser.
In data set [4] the target is GST-PIF mutant F974 to Ala.
Data set [5] has as its target GST-PIF mutant F977 to Ala.
The target in data set [6] is GST-PIF mutant Y979 to Ala.
Data set [7] deals with T1, Region B peptide (24 residue synthetic peptide corresponding to Region B of PIF).
T1 chain: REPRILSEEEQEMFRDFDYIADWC

The next data set concerns the target T2, D978A-Region B peptide.
T2 chain: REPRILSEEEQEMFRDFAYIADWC

Where a chain is given by its changes, count along the chain named.

GST-PIF mutant F977 to Ala, sequence (chain, as listed by the source mutant): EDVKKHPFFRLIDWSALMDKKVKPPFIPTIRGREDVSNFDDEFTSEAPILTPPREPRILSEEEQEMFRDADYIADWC
GST-PIF mutant Y979 to Ala, sequence (chain, as listed by the source mutant): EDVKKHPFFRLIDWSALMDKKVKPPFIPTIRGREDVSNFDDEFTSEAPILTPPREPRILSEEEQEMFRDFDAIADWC
GST-PIF mutant F974 to Ala, sequence (chain, as listed by the source mutant): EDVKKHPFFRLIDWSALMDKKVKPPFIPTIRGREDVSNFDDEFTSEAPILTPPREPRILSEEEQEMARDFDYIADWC
GST-PIF mutant Asp978 to Ser, sequence (chain, as listed by the source mutant): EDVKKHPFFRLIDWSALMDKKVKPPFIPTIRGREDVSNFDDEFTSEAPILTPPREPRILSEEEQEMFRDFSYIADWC

B1: endogenous PDK1 of 293 cells (protein)
chain: MARTTSQLYDAVPIQSSVVLCSCPSPSMVRTQTESSTPPGIPGGSRQGPAMDGTAAEPRPGAGSLQHAQPPPQPRKKRPEDFKFGKILGEGSFSTVVLARELATSREYAIKILEKRHIIKENKVPYVTRERDVMSRLDHPFFVKLYFTFQDDEKLYFGLSYAKNGELLKYIRKIGSFDETCTRFYTAEIVSALEYLHGKGIIHRDLKPENILLNEDMHIQITDFGTAKVLSPESKQARANSFVGTAQYVSPELLTEKSACKSSDLWALGCIIYQLVAGLPPFRAGNEYLIFQKIIKLEYDFPEKFFPKARDLVEKLLVLDATKRLGCEEMEGYGPLKAHPFFESVTWENLHQQTPPKLTAYLPAMSEDDEDCYGNYDNLLSQFGCMQVSSSSSSHSLSASDTGLPQRSGSNIEQYIHDLDSNSFELDLQFSEDEKRLLLEKQAGGNPWHQFVENNLILKMGPVDKRKGLFARRRQLLLTEGPHLYYVDPVNKVLKGEIPWSQELRPEAKNFKTFFVHTPNRTYYLMDPSGNAHKWCRKIQEVWRQRYQSHPDAAVQ
With B1, the “activation of GST-S473D-PKBα (Thr308 phosphorylation) by PDK1 associated with GST-PIF (0.5 µg)” value in data set [1] was “greatly activated a GST-A473D-PKBα mutant”. Further, the “phosphorylation of PKBα at Ser473 (P-473 immunoblot)” value in data set [2], in data set [3], in data set [4], in data set [5] and in data set [6] was “prevented the phosphorylation of PKBα at Ser473” in each case.

B2: wild type GST-PDK1 (protein)
chain: B1 chain
As for B2, the “phosphorylation of PKBα at Ser473” value in data set [7] is listed as “The region B peptide converts the wild type GST-PDK1, but not the kinase dead GST-PDK1, into a kinase which can phosphorylate Ser473 (data not shown)”.

B3: His-PDK1 (Myc-PDK1 with an N-terminal hexahistidine sequence, from Sf21 insect cells) (protein)
chain: B1 chain
For the protein B3, the “phosphorylation of PKBα at Ser473 (P-473 immunoblot, 32P peptide mapping)” value in the data set with D978A-Region B peptide is “far less effective at inducing this alteration in the specificity of PDK1”.

These data come from patent US20070196883.
